Test results: patent US20020146711A1 (published 2002)
*: point of attachment. Biotin = O=C1N[C@H]2[C@H](CS[C@H]2CCCCC(=O)*)N1

T1: SH3 binding peptide: biotin-SGSGILAPPVPPRNTR-COOH (SMILES …)
T1 peptide: Biotin-SGSGILAPPVPPRNTR-OH

B1: MMAC1.388-403: biotin-ENEPFDEDQHTQITKV-COOH (peptide)
peptide: Biotin-ENEPFDEDQHTQITKV-OH
SMILES: CC[C@H](C)[C@H](NC(=O)[C@H](CCC(N)=O)NC(=O)[C@@H](NC(=O)[C@H](Cc1c[nH]cn1)NC(=O)[C@H](CCC(N)=O)NC(=O)[C@H](CC(=O)O)NC(=O)[C@H](CCC(=O)O)NC(=O)[C@H](CC(=O)O)NC(=O)[C@H](Cc1ccccc1)NC(=O)[C@@H]1CCCN1C(=O)[C@H](CCC(=O)O)NC(=O)[C@H](CC(N)=O)NC(=O)[C@H](CCC(=O)O)NC(=O)CCCC[C@@H]1SC[C@@H]2NC(=O)N[C@@H]21)[C@@H](C)O)C(=O)N[C@H](C(=O)N[C@@H](CCCCN)C(=O)N[C@H](C(=O)O)C(C)C)[C@@H](C)O
notes: also called MMAC1 C-terminal PDZ peptide
B2: GST fusion of MMSC2 PDZ domain 3 (P13) (other)
chain: FDVELTKNVQGLGITIAGYIGDKKLEPSGIFVKSITKSSAVEHDGRIQIGDQIIAVDGTNLQGFTNQQAVEVLRHTGQTVLLTLMR
notes: GST placed N-terminal as in pGEX vectors; also called PDZ domain number 3; not shown: glutathione S-transferase (GST) encoded by pGEX vectors (Pharmacia)
B3: GST fusion of MMSC2 PDZ domain 12 (P3) (other)
chain: RTVEMKKGPTDSLGISIAGGVGSPLGDVPIFIAMMHPTGVAAQTQKLRVGDRIVTICGTSTEGMTHTQAVNLLKNASGSIEMQVVA
notes: GST placed N-terminal as in pGEX vectors; also called PDZ domain number 12; not shown: glutathione S-transferase (GST) encoded by pGEX vectors (Pharmacia)
B4: GST fusion of MMSC2 PDZ domain 7 (P9) (other)
chain: RRVELWREPSKSLGISIVGGRGMGSRLSNGEVMRGIFIKHVLEDSPAGKNGTLKPGDRIVEVDGMDLRDASHEQAVEAIRKAGNPVVFMVQS
notes: GST placed N-terminal as in pGEX vectors; also called PDZ domain number 7; not shown: glutathione S-transferase (GST) encoded by pGEX vectors (Pharmacia)
B5: GST fusion of MMSC2 PDZ domain 5 (P12) (other)
chain: QHIELEKGSKGLGFSILDYQDPIDPASTVIIIRSLVPGGIAEKDGRLLPGDRLMFVNDVNLENSSLEEAVEALKGAPSGTVRIGVAK
notes: GST placed N-terminal as in pGEX vectors; also called PDZ domain number 5; not shown: glutathione S-transferase (GST) encoded by pGEX vectors (Pharmacia)
B6: GST fusion of MMSC2 PDZ domain 13 (P4) (other)
chain: KSITLERGPDGLGFSIVGGYGSPHGDLPIYVKTVFAKGAASEDGRLKRGDQIIAVNGQSLEGVTHEEAVAILKRTKGTVTLMVLS
notes: GST placed N-terminal as in pGEX vectors; also called PDZ domain number 13; not shown: glutathione S-transferase (GST) encoded by pGEX vectors (Pharmacia)
B7: GST fusion of MMSC2 PDZ domain 2 (P14) (other)
chain: ETIELVNDGSGLGFGIIGGKATGVIVKTILPGGVADQHGRLCSGDHILKIGDTDLAGMSSEQVAQVLRQCGNRVKLMIAR
notes: GST placed N-terminal as in pGEX vectors; also called PDZ domain number 2; not shown: glutathione S-transferase (GST) encoded by pGEX vectors (Pharmacia)
B8: GST fusion of MMSC2 PDZ domain 11 (P2) (other)
chain: LTIELQKKPGKGLGLSIVGKRNDTGVFVSDIVKGGIADADGRLMQGDQILMVNGEDVRNATQEAVAALLKCSLGTVTLEVGR
notes: GST placed N-terminal as in pGEX vectors; also called PDZ domain number 11; not shown: glutathione S-transferase (GST) encoded by pGEX vectors (Pharmacia)
B9: GST fusion of MMSC2 PDZ domain 9 (P7) (other)
chain: AVDLSSFKNVQHLELPKDQGGLGIAISEEDTLSGVIIKSLTEHGVAATDGRLKVGDQILAVDDEIVVGYPIEKFISLLKTAKMTVKLTIHA
notes: GST placed N-terminal as in pGEX vectors; also called PDZ domain number 9; not shown: glutathione S-transferase (GST) encoded by pGEX vectors (Pharmacia)
B10: GST fusion of MMSC2 PDZ domain 6 (P11) (other)
chain: RTINIAKGNSSLGMTVSANKDGLGMIVRSIIHGGAISRDGRIAIGDCILSINEESTISVTNAQARAMLRRHSLIGPDIKITYVP
notes: GST placed N-terminal as in pGEX vectors; also called PDZ domain number 6; not shown: glutathione S-transferase (GST) encoded by pGEX vectors (Pharmacia)
B11: GST fusion of MMSC2 PDZ domain 10 (P1) (other)
chain: TTIEISKGRTGLGLSIVGGSDTLLGAIIIHEVYEEGAACKDGRLWAGDQILEVNGIDLRKATHDEAINVLRQTPQRVRLTLYR
notes: GST placed N-terminal as in pGEX vectors; also called PDZ domain number 10; not shown: glutathione S-transferase (GST) encoded by pGEX vectors (Pharmacia)
B12: GST fusion of MMSC2 PDZ domain 4 (P10) (other)
chain: HVSKFSENSGLGISLEATVGHHFIRSVLPEGPVGHSGKLFSGDELLEVNGITLLGENHQDVVNILKELPIEVTMVCCR
notes: GST placed N-terminal as in pGEX vectors; also called PDZ domain number 4; not shown: glutathione S-transferase (GST) encoded by pGEX vectors (Pharmacia)
B13: GST fusion of MMSC2 PDZ domain 1 (P15) (other)
chain: EVFELLKPPSGGLGFSVVGLRSENRGELGIFVQEIQEGSVAHRDGRLKETDQILAINGQALDQTITHQQAISILQKAKDTVQLVIAR
notes: GST placed N-terminal as in pGEX vectors; Adsorbed to ELISA wells; also called PDZ domain number 1; not shown: glutathione S-transferase (GST) encoded by pGEX vectors (Pharmacia)
B14: GST fusion of MMSC2 PDZ domain 8 (P8) (other)
chain: HMIELEKGHSGLGLSLAGNKDRSRMSVFIVGIDPNGAAGKDGRLQIADELLEINGQILYGRSHQNASSIIKCAPSKVKIIFIR
notes: GST placed N-terminal as in pGEX vectors; also called PDZ domain number 8; not shown: glutathione S-transferase (GST) encoded by pGEX vectors (Pharmacia)

Biological target: B11
Test: summary of the PDZ binding assay

Row | Binder | binding result
1 | B1 | binds

Biological target: B6
Test: summary of the PDZ binding assay

Row | Binder | binding result
2 | B1 | binds

Biological target: B4
Test: summary of the PDZ binding assay

Row | Binder | binding result
3 | B1 | binds

Biological target: B1
Test: ELISA, GST-PDZ domain on plate, biotin-peptide/streptavidin-alkaline phosphatase complex in solution
Description: (§1) cDNAs encoding each of the MMSC2 PDZ domains (amino acid residues identified in Table 1), and any desired control proteins, were generated by PCR and subcloned as glutathione S-transferase (GST) fusions in pGEX vectors (Pharmacia). After sequencing to confirm expression construct integrity, the resulting clones were expressed in E. coli and the desired fusion proteins isolated with glutathione-agarose and recovered with glutathione elution. These fusion proteins or control proteins were then adsorbed to different wells of a 96-well ELISA plate and remaining sites blocked with BSA. Synthetic commercially synthesized peptides encoding the desired PDZ-binding domain (i.e., the 16 C-terminal amino acids of MMAC1, or the C-terminal peptide sequences of interacting proteins identified by the approach of Example 2, or the C-terminal peptide sequences identified by the approach of Example 3), or a control peptide, and biotinylated at the amino-terminus, were pre-bound to streptavidin-alkaline phosphatase in a 4:1 molar ratio. The biotinylated peptide streptavidin-alkaline phosphatase complexes were then blocked with free biotin. These pre-bound peptide streptavidin-alkaline phosphatase complexes were then incubated with the immobilized PDZ domains in wash buffer containing PBS, BSA and triton-X100. Unbound material was removed with repeated washes. Bound peptide/streptavidin-alkaline phosphatase complex was then quantitated by a colorimetric phosphatase assay read on a 96-well plate reader. The following peptides were used in the initial study:
(§2) The relative affinity of each of the 13 PDZ domains encoded by MMSC2 for an MMAC1 C-terminal PDZ peptide as measured by an ELISA assay is set forth in Table 2.

Row | Binder | A405 [A405]
4 | B2 | 0.006
5 | B3 | 0.003
6 | B4 | 0.667
7 | B5 | 0
8 | B6 | 0.456
9 | B7 | 0.001
10 | B8 | 0.012
11 | B9 | 0.017
12 | B10 | 0.016
13 | B11 | 0.174
14 | B12 | 0.024
15 | B13 | 0.011
16 | B14 | 0.006

Biological target: T1, SH3 binding peptide: …
Test: as above
Description: as §1, §2

Row | Binder | A405 [A405]
17 | B2 | 0.008
18 | B3 | 0.011
19 | B4 | 0.006
20 | B5 | 0.005
21 | B6 | 0.006
22 | B7 | 0.006
23 | B8 | 0.009
24 | B9 | 0.009
25 | B10 | 0.017
26 | B11 | 0.002
27 | B12 | 0.01
28 | B13 | 0.007
29 | B14 | 0.008
